Data as given in the Immune Epitope Database (IEDB).

Legend:
HLA-A*01:01 [1] = experiment: IEDB peptide-MHC binding, purified MHC/direct/fluorescence; filed as Kd, often an IC50 or EC50 that approximates it; ≥ and ≤ were set here for values at or beyond the usual limits of such assays
HLA-A*26:01 [2] = experiment: as above; details: source organism: Mycobacterium avium 104
HLA-A*23:01 = experiment: IEDB peptide-MHC binding, purified MHC/competitive/radioactivity; filed as Kd, often an IC50 or EC50 that approximates it; ≥ and ≤ were set here for values at or beyond the usual limits of such assays
HLA-A*24:02 = experiment: as above
HLA-A*29:02 = experiment: as above
HLA-A*02:01 = experiment: IEDB peptide-MHC binding, purified MHC/competitive/fluorescence; filed as Kd, often an IC50 or EC50 that approximates it; ≥ and ≤ were set here for values at or beyond the usual limits of such assays
HLA-A*01:01 [3] = experiment: IEDB peptide-MHC binding, purified MHC/competitive/radioactivity; filed as Kd, often an IC50 or EC50 that approximates it; ≥ and ≤ were set here for values at or beyond the usual limits of such assays
HLA-A*26:01 [4] = experiment: as above
HLA-A*30:02 = experiment: as above
HLA-B*07:02 = experiment: as above
HLA-A*33:01 = experiment: as above; details: source organism: Vaccinia virus WR
HLA-A*30:01 = experiment: as above; details: source organism: Vaccinia virus WR
HLA-A*31:01 = experiment: as above; details: source organism: Vaccinia virus WR
HLA-A*11:01 [5] = experiment: as above; details: source organism: Vaccinia virus WR
HLA-A*68:01 = experiment: as above; details: source organism: Vaccinia virus WR
HLA-A*03:01 [6] = experiment: as above; details: source organism: Vaccinia virus WR
HLA-A*11:01 [7] = experiment: IEDB peptide-MHC binding, purified MHC/direct/fluorescence; filed as Kd, often an IC50 or EC50 that approximates it; ≥ and ≤ were set here for values at or beyond the usual limits of such assays; details: source organism: SARS-CoV1
HLA-B*58:01 = experiment: as above; details: source organism: SARS-CoV1
HLA-A*03:01 [8] = experiment: as above; details: source organism: SARS-CoV1
HLA-B*15:01 = experiment: as above; details: source organism: SARS-CoV1
HLA-B*51:01 = experiment: IEDB peptide-MHC binding, purified MHC/competitive/radioactivity; filed as Kd, often an IC50 or EC50 that approximates it; ≥ and ≤ were set here for values at or beyond the usual limits of such assays; details: source organism: Dengue virus 1 Brazil/97-11/1997
HLA-A*02:03 = experiment: as above; details: source organism: SARS coronavirus Tor2
HLA-A*02:02 = experiment: as above; details: source organism: SARS coronavirus Tor2
HLA-A*02:06 = experiment: as above; details: source organism: SARS coronavirus Tor2
[9] = source organism: Dengue virus 4 Philippines/H241/1956
[10] = source organism: Mammarenavirus brazilense
[11] = source organism: SARS coronavirus Tor2
[12] = source organism: Lymphocytic choriomeningitis virus (strain Armstrong)
[13] = source organism: Triticum aestivum
[14] = source organism: Dengue virus 1 Brazil/97-11/1997

Sequence: LTVTLVWLY
- Kd (HLA-A*01:01 [1]; source organism: Mycobacterium avium 104): ≥ 20000 nM
- Kd (HLA-A*26:01 [2]): 2.7 nM

Sequence: LYPLAIPVTM
- Kd (HLA-A*23:01; [9]): 336 nM
- Kd (HLA-A*24:02; [9]): 1510 nM

Sequence: LYTVKFPNLI
- Kd (HLA-A*23:01; [10]): 538 nM
- Kd (HLA-A*29:02; [10]): ≥ 54700 nM
- Kd (HLA-A*24:02; [10]): 605 nM

Sequence: MLAESCDSV
- Kd (HLA-A*02:01; source organism: Vaccinia virus): 1.1 nM

Sequence: MPQMKKILK
- Kd (HLA-A*02:01; source organism: Vaccinia virus WR): 2010 nM

Sequence: NFKHLREFVF
- Kd (HLA-A*23:01; [11]): 115 nM
- Kd (HLA-A*29:02; [11]): 16.4 nM
- Kd (HLA-A*01:01 [3]; [11]): ≥ 70400 nM
- Kd (HLA-A*26:01 [4]; [11]): ≥ 69700 nM
- Kd (HLA-A*24:02; [11]): 260 nM
- Kd (HLA-A*30:02; [11]): ≥ 78900 nM

Sequence: NGDVVAIDY
- Kd (HLA-A*23:01; [11]): ≥ 77800 nM
- Kd (HLA-A*29:02; [11]): 825 nM
- Kd (HLA-A*01:01 [3]; [11]): 1030 nM
- Kd (HLA-A*26:01 [4]; [11]): ≥ 81500 nM
- Kd (HLA-A*24:02; [11]): ≥ 77600 nM
- Kd (HLA-A*30:02; [11]): 1800 nM

Sequence: PMMCPFLFL
- Kd (HLA-A*23:01; [12]): 220 nM
- Kd (HLA-A*29:02; [12]): 208 nM
- Kd (HLA-A*24:02; [12]): 484 nM

Sequence: PYPQPQPQY
- Kd (HLA-A*23:01; [13]): ≥ 49400 nM
- Kd (HLA-A*29:02; [13]): 230 nM
- Kd (HLA-A*01:01 [3]; [13]): ≥ 78100 nM
- Kd (HLA-A*26:01 [4]; [13]): ≥ 77900 nM
- Kd (HLA-A*24:02; [13]): ≥ 237000 nM
- Kd (HLA-A*30:02; [13]): 639 nM

Sequence: QFLYLYALI
- Kd (HLA-A*23:01; [11]): 0.117 nM
- Kd (HLA-A*29:02; [11]): 64.1 nM
- Kd (HLA-A*01:01 [3]; [11]): 2320 nM
- Kd (HLA-A*26:01 [4]; [11]): 10100 nM
- Kd (HLA-A*24:02; [11]): 26.1 nM
- Kd (HLA-A*30:02; [11]): ≥ 26700 nM

Sequence: QSDTVFDHY
- Kd (HLA-A*23:01; source organism: Variola virus): ≥ 77700 nM
- Kd (HLA-A*29:02; source organism: Variola virus): ≥ 38000 nM
- Kd (HLA-A*01:01 [3]; source organism: Variola virus): 9.5 nM
- Kd (HLA-A*26:01 [4]; source organism: Variola virus): ≥ 77900 nM
- Kd (HLA-A*24:02; source organism: Variola virus): ≥ 77500 nM
- Kd (HLA-A*30:02; source organism: Variola virus): 11900 nM

Sequence: RIQQYMFFM
- Kd (HLA-A*02:01; source organism: Human alphaherpesvirus 1 strain 17): 81 nM

Sequence: RPRWLDARVY
- Kd (HLA-B*07:02; source organism: Dengue virus 4 Dominica/814669/1981): 13.7 nM

Sequence: RPTFAAGLL
- Kd (HLA-B*07:02; source organism: Dengue virus 2 Jamaica/1409/1983): 1.09 nM

Sequence: RVLFSIFYK
- Kd (HLA-A*33:01): 1860 nM
- Kd (HLA-A*30:01): 118 nM
- Kd (HLA-A*31:01): 0.861 nM
- Kd (HLA-A*11:01 [5]): 53.2 nM
- Kd (HLA-A*68:01): 120 nM
- Kd (HLA-A*03:01 [6]): 5.35 nM

Sequence: SFYADPKRFF
- Kd (HLA-A*23:01; [12]): 126 nM
- Kd (HLA-A*29:02; [12]): 44.4 nM
- Kd (HLA-A*24:02; [12]): 709 nM

Sequence: SSQGSEYDY
- Kd (HLA-A*23:01; [11]): ≥ 77800 nM
- Kd (HLA-A*29:02; [11]): 294 nM
- Kd (HLA-A*01:01 [3]; [11]): 576 nM
- Kd (HLA-A*26:01 [4]; [11]): ≥ 102000 nM
- Kd (HLA-A*24:02; [11]): ≥ 77600 nM
- Kd (HLA-A*30:02; [11]): 68.9 nM

Sequence: SWLVHKQWFL
- Kd (HLA-A*23:01; [14]): 173 nM
- Kd (HLA-A*24:02; [14]): 2700 nM

Sequence: TCDGNTFTY
- Kd (HLA-A*23:01; [11]): ≥ 77800 nM
- Kd (HLA-A*29:02; [11]): 6.85 nM
- Kd (HLA-A*26:01 [4]; [11]): ≥ 38600 nM
- Kd (HLA-A*24:02; [11]): ≥ 23900 nM
- Kd (HLA-A*30:02; [11]): 107 nM
- Kd (HLA-A*01:01 [1]; source organism: SARS-CoV1): 531 nM
- Kd (HLA-A*11:01 [7]): 2480 nM

Sequence: TPSMAMRCVG
- Kd (HLA-B*07:02; [14]): 405 nM

Sequence: TSNPKTPKY
- Kd (HLA-A*23:01; [11]): ≥ 77800 nM
- Kd (HLA-A*29:02; [11]): 549 nM
- Kd (HLA-A*26:01 [4]; [11]): ≥ 56400 nM
- Kd (HLA-A*24:02; [11]): ≥ 77600 nM
- Kd (HLA-A*30:02; [11]): 0.228 nM
- Kd (HLA-B*58:01): 212 nM
- Kd (HLA-A*01:01 [1]; source organism: SARS-CoV1): 4520 nM
- Kd (HLA-A*11:01 [7]): 14300 nM
- Kd (HLA-A*03:01 [8]): 1230 nM
- Kd (HLA-B*15:01): 393 nM

Sequence: VLFRLENHA
- Kd (HLA-A*02:01; source organism: Vaccinia virus WR 65-16): 56.5 nM

Sequence: VWTLMNVITL
- Kd (HLA-A*23:01; [11]): 62.2 nM
- Kd (HLA-A*29:02; [11]): 72.1 nM
- Kd (HLA-A*01:01 [3]; [11]): 2720 nM
- Kd (HLA-A*26:01 [4]; [11]): 1500 nM
- Kd (HLA-A*24:02; [11]): 188 nM
- Kd (HLA-A*30:02; [11]): 19400 nM

Sequence: WPLNEGIMAI
- Kd (HLA-B*51:01): 186 nM

Sequence: YQCGHYTHI
- Kd (HLA-A*02:03): 14.9 nM
- Kd (HLA-A*23:01; [11]): 312 nM
- Kd (HLA-A*29:02; [11]): ≥ 25000 nM
- Kd (HLA-A*02:02): 72.1 nM
- Kd (HLA-A*01:01 [3]; [11]): ≥ 20100 nM
- Kd (HLA-A*26:01 [4]; [11]): 13300 nM
- Kd (HLA-A*24:02; [11]): 116 nM
- Kd (HLA-A*30:02; [11]): 10900 nM
- Kd (HLA-A*02:06): 9.23 nM
